# Reference: the DeepSol protein solubility set
# Test: soluble on expression in E. coli; label from the status in PepcDB or PDB records
row,Sequence,soluble on expression in E. coli
1,MSLKILVIGPSWVGDMMMSQSLYRTLKARYPQAIIDVMAPAWCRPLLSRMPEVNEAIPMPLGHGALEIGERRRLGHSLREKRYDRAWVLPNSFKSALIPFFANIPHRTGWRGEMRYGLLNDARVLDKDAWPLMVERYVALAYDKGVMRAAKDLPQPLLWPQLQVSEGEKSLMCSDFSLSSERPLIGFCPGAEFGPAKRWPHYHYAELAKQLINEGYQVVLFGSAKDHEAGNEILAALNSEQQAWCRNLAGETQLEQAVILIAACKAIVTNDSGLMHVAAALDRPLVALYGPSSPDFTPPLSHKARVIRLITGYHKVRKGDTAQGYHQSLIDITPQRVLEELHSLLSEEGVEGGSHHHHHH,soluble
2,MALKDRFDKIISYFDTDDVSENEVHEVQERTSVQRDSRAATAQEASQRSHMTNSAEEEMIGSRPRTYTYDPNRQERQRVQRDNAYQQATPRVQNKDSVRQQREQVTIALKYPRKYEDAQEIVDLLIVNECVLIDFQYMLDAQARRCLDYIDGASRVLYGSLQKVGSSMFLLTPANVMVDIEEMNIPKTGQETSFDFDMKRRLEHHHHHH,not soluble
3,MRAVRLVEIGKPLSLQEIGVPKPKGPQVLIKVEAAGVCHSDVHMRQGRFGNLRIVEDLGVKLPVTLGHEIAGKIEEVGDEVVGYSKGDLVAVNPLQGEGNCYYCRIGEEHLCDSPRWLGINFDGAYAEYVIVPHYKYMYKLRRLNAVEAAPLTCSGITTYRAVRKASLDPTKTLLVVGAGGGLGTMAVQIAKAVSGATIIGVDVREEAVEAAKRAGADYVINASMQDPLAEIRRITESKGVDAVIDLNYSEKTLSVYPKALAKQGKYVMVGLFGADLHYHAPLITLSEIQFVGSLVGNQSDFLGIMRLAEAGKVKPMITKTMKLEEANEAIDNLENFKAIGRQVLIP,soluble
4,MSQIEFKNVSKVYPNGHVGLKNINLNIEKGEFAVIVGLSGAGKSTLLRSVNRLHDITSGEIFIQGKSITKAHGKALLEMRRNIGMIFQHFNLVKRSSVLRNVLSGRVGYHPTWKMVLGLFPKEDKIKAMDALERVNILDKYNQRSDELSGGQQQRISIARALCQESEIILADEPVASLDPLTTKQVMDDLRKINQELGITILINLHFVDLAKEYGTRIIGLRDGEVVYDGPASEATDDVFSEIYGRTIKEDEKLGVN,not soluble
5,MGSDKIHHHHHHMASKEEQYAAFYQFLETLDCYLTTTNALENEVAQFKENPHREIAGFMLASSETIDVPKGFIRMLYCLEQDGYAYLDQQRCSFSAGQVMIVNEATSVSYQGQGMSMIIFYFKKHYFLDTLLNQLAEEPVMYRFFTEIASSEFENIPRYFVFASQPNSDVHVYSLLLLKQIVKMAYFNNKVTKAAFVLLVVELGQLPREALKMQDNYLSNHQRVEVILAYIEQQIAHVTLAEVAAKFHFHPNYLSNFLKEKTNKTFTEIVLAYRIQLAKNYLKQTDLSIQTIVERIGYQDKAFFYKRFKEEMGMTPKQYRQKEGMADVRRSL,not soluble
6,MAHHHHHHMRVYYSNLVKDKRKCLNFIKVEKKYGGTSLLTKIGQAFNQEHLRNMKTKLDDVKKSSSPFFGTSMEGSNNIFKNFIDIFRKNNIIKDKLKINDSEKKEKEFYMFYVNSLMKYEGIFTYGKFQAFLKDLCDYFNIFSIKYKYKKKMNPQFEKLKKQYEVLNSFLPYELDNDDYKIFTQESKKYIAQAANVDIKFIDELLLFHDTLKTDRTWFYRRKVLKRNIPESFEAREMEAPYDRPVPKTYNYNIKEHSLEYDEFMKKHGRKLKFKQWNSKQHPWFRKNTSGRNRWATRPYTKQFPYLYYSRVPSHMYLSKNKPKISH,not soluble
7,MKSHKMMGGGISMHYITACLKIISDKDLNEIMKEFKKLEEETNKEEGCITFHAYPLEPSERKIMLWEIWENEEAVKIHFTKKHTIDVQKQELTEVEWLMKSNVND,soluble
8,MSNQYDPSQPVVFTDFSPKEGGMRTRLYIEGSNFGNDPTKIHITIGGEKTKTIGADGKKIYCMVPSKAFDGIINVRVDGPDGKPIAEHTFEEEFKYTPATIVGTLLRKVDEDNNSAFQEGSFDEGASIPSNDCMVFDPKYKDGDNRLLFSSNHSDGLHLIDLTERTVKRLFPRTGYSTMYSFTFSADGDTLLFTDDHGQDNTTRANIYYSLRRENFRRIRPYNYGRTAYSLVYMDDGTIFYTTWWEGKVYKMIRNGAIPNIDENAEVAFSLSQISAVGGSHTILFRHPSNKFMYMLSDNFGAVFRADYDPVAKTFGNPSIIAGNMNDKSFKEGTGGSARFNKPQFGVFVKNEKYGEGIGPDNDQYDFYFCDRENHCIWKLDPHGVASLAAGRSNENADGKIWGYVDGNPLHEARFNQPAGLAYDPDTDMFYIGDIDNKGIRYMTTELEHHHHHH,not soluble
9,MLKSVQGLWKDFFGIRDDGRKREYGSLDEVRKRSALRSRRKQMRPTGKSVLKRPRKVTDRKTEEKIRTNRRKTPKRRLTKIFQTIRDVFSNDNENMSKMQNVCGDMTRILKKRSQGRPSYMDTDTAKSRILRSDAFKRKISELKYNKQRISELRSGSSDGSSGKDRNQSLYLDREILLQRQIKKRDEKIKALESKLQSLQEALNYSNEKYRILEDLLDSSNIHPSYTKSRRTMSNLARENDEIKPLKIDLSPSPIRRTNSLFTSSPMKTYNRDGNIPEMQPLQENISPACPTPPYRSRETEKEDETLSPISVDFSSYLS,soluble
10,MGSDKIHHHHHHMGLEQDDEGGARRACVIVIGNQKGGSGKSTVAMHLVVSLARAGLRTGSIDLDAGQATLTRYLENRRAFAEKRGLDLPSPEHVPMVPGTSLEADIRRLEHSMLAFHEEVDVVVIDTPGSDTALNRAAHALADVLITPLNDSFIDLDVMARIDGDSMTITGPSPYAAAVWEAKQARARRDGTSMRWIVMRNRLSHLDARNKRDMEDALNDLSRRIGFSVVPGLGERVIYRELFLNGLTLLDLKDKGTGVDISMSHVAARQELRALLAAIGMPKSIGL,not soluble
11,MDIRLEDEQIKVGDTLLPGVYEGMEVTGDVRSDEEELQSGKRVVHYSYNPTTIRLNLKLLNDADGTPEEKLATIQKVFRPPSQTKPPTYKLVSSHAKARGIGQVMFIRFRSQDTNASDIITVSLEFQETESTTVSVQKVKANTGSGQQYTVKKGDTLWALAKKFNTTVEAIAKANNIANVNLIYVGQKLTIPAASGNASSVASSSAAVDDAEAPKVR,not soluble
12,ATATAYVRSCDGASPPTPPGCGLKLVVDLTLDDSILTGSVLETEVMVTHALHESLFPRDAASDAAGTAATSLQVSLPPITVAMRRGAVQMRYGLTYLRTFPAALRDSVRVLKTAMSCDDGVTRCPSYMSMTGTLVSAPLGLCCLCTSVECALTSDLCNASMRAHFCFRTGAAGITCVQSEGITYHGWAVGSSSPYYMMHLSASGRGIAPTTLQLTTDAPEVQKGASALQILRASGVLPGESNPTVDISGRVLFVPSAEHSSASRSISTGPVRDDDPAEWLLLPAPLVSVSGNDCDKVGISPDYFYSLSSTKQCNAQKGTCVRHQLADYRAADLEQIAQGVGGRYIAASLGTFTRQAMREQEFLLDAVERTGGAMLRWTVNADGLVFQPLPVHGVLDAIKFDSSTGILYVTVRNNNTYGGLYYVAVGQCRGARASNCDSDGVTHECGRTALVAGANTSSLLQFSMVSDLPEEVGSTASCTVVFRDAAAALLASANISWTVEHTTTTPAPNAPKAEQCRRCAFRDLRCLFSTV,not soluble
13,SKIFSKCELARKLKSMGMDGFHGYSLANWVCMAEYESNFNTQAFNGRNSNGSSDYGIFQLNSKWWCKSNSHSSANACNIMCSKFLDDNIDDDIACAKRVVKDPNGMSAWVAWVKHCKGKDLSKYLASCNL,soluble
14,MASHKLLVTPPKALLKPLSIPNQLLLGPGPSNLPPRIMAAGGLQMIGSMSKDMYQIMDEIKEGIQYVFQTRNPLTLVISGSGHCALEAALVNVLEPGDSFLVGANGIWGQRAVDIGERIGARVHPMTKDPGGHYTLQEVEEGLAQHKPVLLFLTHGESSTGVLQPLDGFGELCHRYKCLLLVDSVASLGGTPLYMDRQGIDILYSGSQKALNAPPGTSLISFSDKAKKKMYSRKTKPFSFYLDIKWLANFWGCDDQPRMYHHTIPVISLYSLRESLALIAEQGLENSWRQHREAAAYLHGRLQALGLQLFVKDPALRLPTVTTVAVPAGYDWRDIVSYVIDHFDIEIMGGLGPSTGKVLRIGLLGCNATRENVDRVTEALRAALQHCPKKKL,soluble
15,MGSDKIHHHHHHMVSRSPFESFQWKSDIFNCESTDIDNFYLLLEQEMTRLGMVEKNLGEVGKYKVSLYQSPAAKSGLPSLLISAGFHGEESAGPWGLLHFLSEASADLFERVNLSLLPLVNPTGFSRGHRFNKYGENPNRGFVFENGKPKANEHTSVEGKLLLDHAQLLIAACRDGILTCHEDVLSREAYVYSFEPSQVPGRFSLDLRDTLGGYFPIAVDGEIDACPVKDGLIFNHFDTSFEACLVRSGARVGACTETPALQNFDQRVLANSAAMTHFLALCAPLCD,not soluble
16,SLSLLIDIVDETGSVSEEMLKEVENLLQFAAEREGVQDQAEVSVTIVSNDDIHQINKEYRGKDAPTDVISFALEEEGEGEIEIVGAEMPPVLGNIIISADRTREQAEEYNHSFKRELGFLAVHGFLHLLGYDHMTKEEEEEMFTKQKELLDAYGLKRS,soluble
17,MSLRLKIGSPVFFKQVRPGLHGKPFTLYKFRTMTDERDSKGNLLPDEVRLTKTGRLIRKLSIDELPQLLNVLKGDLSLVGPRPLLMDYLPLYTEKQARRHEVKPGITGWAQINGRNAISWEKKFELDVWYVDNWSFFLDLKILCLTVRKVLVSEGIQQTNHVTAERFTGSGDVSSEGHHHHHH,not soluble
18,MSLKWTIYQLHQMPKQSFEFDETVELNELTKLNSDIRRISPVRVKGRADIKSKQVSFDFTISGEMLLPCSRTLVDVPYPFEISTKELFIFHHTDDIEDDDVHIVEDDTIDITPIVKEEILLEIPMQIFCESEQEKGAAPQEGKDWQVISEEDKKNQVDPRLAALEKLLKQDDESEGHHHHHH,soluble
19,MYRAIGMIELTSVARGIYATDQMLKIAYVDVVSATPVCPGKYIAIVQGDVAAVESSISTGIAISGEYLVDSFVLPNVHEGIFPAITATTMPDGTGALGIMESFSMASMITAADAALKAADVQALELRLGSGLGGKAYFTFTGDVAAVEAGIEAGKAIAMEKGLLVDIEVIPSPSDRLWTSLY,soluble
20,MQLGETAEEACLRELYEETGLQLEIERLAFIHENFFTGQESDFLNKVNCHELSFYFLMKPLTENLSVKSESFGTDGSKEFLKWIPIAEYKNYKAFPTFFADELKNLSVNSQIKRIVTTELEHHHHHH,not soluble
21,MLNSRRIVVVLPAYNAEKTLEMTYAEIPFEHVDHVLLVDDASRDRTAQVAERLGIKTIVHDRNKGYGANQKTCYRAALDLGADIVIMVHPDYQYTPKLITAMAAMIAYGEFDAVLGSRILGIGALKGGMPLYKYVANRVLTLVENLLLSHKLSEYHTGYRAFSRQVLEQLPLDANGDDFVFDNQMLAQIIWHGYRIGELSCPTKYFEDASSINFRRSVIYGLGVLGTALEFRLARMGLIRSGRFTPRNDQAAAQLEHHHHHH,soluble
22,MSKKIVLALGGNALGDDLAGQMKAVKITSQAIVDLIAQGHEVIVTHGNGPQVGMINQAFEAAAKTEAHSPMLPMSVCVALSQGYIGYDLQNALREELLSRGINKPVATLVTQVEVDANDPAFLNPTKPIGSFFTEQEAEQLTKQGYTLKEDAGRGYRRVVASPKPVDIIEKETVKALVDAGQVVITVGGGGIPVIREGNHLRGASAVIDKDWASARLAEMIDADMLIILTAVEKVAINFGKENEQWLDRLSLSDAERFIEEGHFAKGSMLPKVEAAASFARSRAGREALITVLSKAKEGIEGKTGTVICQ,not soluble
